These results are taken from JP2011160681A.

Assay [1] has as its target InfA peptide (GMVDGWYG) (Influenza A virus). The assay is described as follows: ITC (summary in the description).
The target is the same in assay [2]. The assay is described as follows: ITC, 25 °C, peptide titrated into antibody.

B1: InfA-15 monoclonal antibody (antibody, V domains shown)
VH: QVQLKESGPGLVAPSQSLSITCTVSGFSLTKSGLHWVRQPPGKGLEWLGVIWAGGSTDYNSALTSRLTITKDNSKSQIFFRLNSLQTADTAMYYCVRSTFLYAMDFWGQGTSVTVS
VL: DAVMTQTPLSLPVSLGDQASISCRSSPSLEHSNGNTYLNWYLQKPGQSPQLLIYRVSNRFSGVPDRFSGSGSGTDFTLKISRVEAEDLGVYFCLQVTHVPPTFGGGTKLEIKRA
Take B1: the 結合定数 (order of magnitude, unit M as printed) in assay [1] stood at 1000 nM. For the same molecule, the Ka in assay [2] came out at 8.6e+06 M⁻¹.
